Reference: article PMC6650354
Like-named read-outs stand apart in the source and are kept apart here. One block for each substance: values may come before it.

Key:
[1] = biological target: immunoglobulin light chain κI O18/O8 variable domain (Homo sapiens) (UniProt P01594); conditions: cited from earlier work
[2] = biological target: κI O18/O8 germline (control) light chain variable domain protein (human) (UniProt P01594); experiment: HPLC sedimentation assay
[3] = biological target: κI O18/O8 germline (control) light chain variable domain protein (human) (UniProt P01594); experiment: HPLC sedimentation assay; remark: listed apart in the source
[4] = biological target: AL-09 H87Y restorative mutant light chain variable domain protein (human) (UniProt P01594); experiment: HPLC sedimentation assay
[5] = biological target: AL-09 H87Y restorative mutant light chain variable domain protein (human) (UniProt P01594); experiment: HPLC sedimentation assay; remark: listed apart in the source
[6] = biological target: AL-12 R65S restorative mutant light chain variable domain protein (human) (UniProt P01594); experiment: HPLC sedimentation assay

Substance: immunoglobulin light chain κI O18/O8 variable domain (from UniProt P01594)
Kd [1]: 217 µM

critical concentration (Cr) of fibril growth [2]: 1.2 µM
critical concentration (Cr) of fibril growth [3]: 3.2 µM
Substance: κI O18/O8 germline (control) light chain variable domain protein (from UniProt P01594 23-117) (domain or fragment)

critical concentration (Cr) of fibril growth [4]: 2.4 µM
critical concentration (Cr) of fibril growth [5]: 2.8 µM
Substance: AL-09 H87Y restorative mutant light chain variable domain protein (from UniProt P01594 23-117) (domain or fragment)

critical concentration (Cr) of fibril growth [6]: 3.4 µM
Substance: AL-12 R65S restorative mutant light chain variable domain protein (from UniProt P01594 23-111) (domain or fragment)
